We go through 4 substances from patent US20230357367A1.

Where two headings read alike, the source gives them in different places.

Common to all, as to assay: cell-based or functional assay
Experiment [1] has as its target SARS-CoV-1 Spike on pseudovirus (SARS-CoV-1) (UniProt P59594).
The target in experiment [2] is WIV1 Spike on pseudovirus (WIV1 (bat SARS-like coronavirus)).
Experiment [3] addresses SARS-CoV-1 Spike on pseudovirus (SARS-CoV-1) (UniProt P59594). The source holds these as a separate data set.
Experiment [4] concerns the target WIV1 Spike on pseudovirus (WIV1 (bat SARS-like coronavirus)). This is another data set of the same source.
Experiment [5] deals with spike (WIV-1) (WIV1 (bat SARS-like coronavirus)).
The target in experiment [6] is spike (SARS-CoV-1) (SARS-CoV-1) (UniProt P59594).

On to AZD1061 (antibody), for which the % neutralization at 4.5 µg/ml, pseudovirus stood at 1.2% in experiment [1] and 0.8% in experiment [2].

Take AZD8895 (antibody): the % neutralization at 4.5 µg/ml, pseudovirus in experiment [1] stood at 1.7%; in experiment [2], 0.6%.

In the case of “Sotrovimab VH/VL (human IgG1 molecule expressing the same variable regions of Sotrovimab) (antibody)”, the IC50, pseudovirus neutralization came out at 0.0089 µg/mL in experiment [3], 0.0274 µg/mL in experiment [4], 0.014 µg/mL in experiment [1] and 0.032 µg/mL in experiment [2]. Also, the % neutralization at 4.5 µg/ml, pseudovirus is 101% in experiment [1] and 99.4% in experiment [2].

On to bebtelovimab (antibody), for which the Emax, pseudovirus neutralization (% neutralization) in experiment [5] is 6.99; in experiment [6], 8.
